Consider 1 molecule from paper PMC6303327 (2018).

The assay deals with Rfa3 DNA-binding domain-E (DBD-E), OB domain, residues 1-99 (S. cerevisiae, UniProt P26755 1-99, fluorescent label NT-495 (Monolith NT protein-labeling Kit Blue-Cys) on free cysteine residues). Description: MST.
Rfa3 DNA-binding domain-E (DBD-E), OB domain, residues 1-99, sequence (P26755 1-99): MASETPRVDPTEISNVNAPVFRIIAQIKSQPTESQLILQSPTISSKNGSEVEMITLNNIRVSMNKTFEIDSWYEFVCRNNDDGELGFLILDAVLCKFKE

B1: Rfa1 DBD-A (residues 178-294) phosphomimetic S178D (domain or fragment)
chain: DQKTRPIFAIEQLSPYQNVWTIKARVSYKGEIKTWHNQRGDGKLFNVNFLDTSGEIRATAFNDFATKFNEILQEGKVYYVSKAKLQPAKPQFTNLTHPYELNLDRDTVIEECFDESN
Broadly, the EC50 is the concentration needed to bring the measured effect to its halfway point. Regarding B1, a half-maximal effect (EC50) was put at 36 µM.
